Measurements from IntAct's records for PubMed 25961797.

Columns and labels:
[1] = target: cry1_mouse Cry1 (UniProt P97784)
[2] = target: cbp_mouse Crebbp (UniProt P45481)
Sequence of cbp_mouse Crebbp (P45481 whole entry): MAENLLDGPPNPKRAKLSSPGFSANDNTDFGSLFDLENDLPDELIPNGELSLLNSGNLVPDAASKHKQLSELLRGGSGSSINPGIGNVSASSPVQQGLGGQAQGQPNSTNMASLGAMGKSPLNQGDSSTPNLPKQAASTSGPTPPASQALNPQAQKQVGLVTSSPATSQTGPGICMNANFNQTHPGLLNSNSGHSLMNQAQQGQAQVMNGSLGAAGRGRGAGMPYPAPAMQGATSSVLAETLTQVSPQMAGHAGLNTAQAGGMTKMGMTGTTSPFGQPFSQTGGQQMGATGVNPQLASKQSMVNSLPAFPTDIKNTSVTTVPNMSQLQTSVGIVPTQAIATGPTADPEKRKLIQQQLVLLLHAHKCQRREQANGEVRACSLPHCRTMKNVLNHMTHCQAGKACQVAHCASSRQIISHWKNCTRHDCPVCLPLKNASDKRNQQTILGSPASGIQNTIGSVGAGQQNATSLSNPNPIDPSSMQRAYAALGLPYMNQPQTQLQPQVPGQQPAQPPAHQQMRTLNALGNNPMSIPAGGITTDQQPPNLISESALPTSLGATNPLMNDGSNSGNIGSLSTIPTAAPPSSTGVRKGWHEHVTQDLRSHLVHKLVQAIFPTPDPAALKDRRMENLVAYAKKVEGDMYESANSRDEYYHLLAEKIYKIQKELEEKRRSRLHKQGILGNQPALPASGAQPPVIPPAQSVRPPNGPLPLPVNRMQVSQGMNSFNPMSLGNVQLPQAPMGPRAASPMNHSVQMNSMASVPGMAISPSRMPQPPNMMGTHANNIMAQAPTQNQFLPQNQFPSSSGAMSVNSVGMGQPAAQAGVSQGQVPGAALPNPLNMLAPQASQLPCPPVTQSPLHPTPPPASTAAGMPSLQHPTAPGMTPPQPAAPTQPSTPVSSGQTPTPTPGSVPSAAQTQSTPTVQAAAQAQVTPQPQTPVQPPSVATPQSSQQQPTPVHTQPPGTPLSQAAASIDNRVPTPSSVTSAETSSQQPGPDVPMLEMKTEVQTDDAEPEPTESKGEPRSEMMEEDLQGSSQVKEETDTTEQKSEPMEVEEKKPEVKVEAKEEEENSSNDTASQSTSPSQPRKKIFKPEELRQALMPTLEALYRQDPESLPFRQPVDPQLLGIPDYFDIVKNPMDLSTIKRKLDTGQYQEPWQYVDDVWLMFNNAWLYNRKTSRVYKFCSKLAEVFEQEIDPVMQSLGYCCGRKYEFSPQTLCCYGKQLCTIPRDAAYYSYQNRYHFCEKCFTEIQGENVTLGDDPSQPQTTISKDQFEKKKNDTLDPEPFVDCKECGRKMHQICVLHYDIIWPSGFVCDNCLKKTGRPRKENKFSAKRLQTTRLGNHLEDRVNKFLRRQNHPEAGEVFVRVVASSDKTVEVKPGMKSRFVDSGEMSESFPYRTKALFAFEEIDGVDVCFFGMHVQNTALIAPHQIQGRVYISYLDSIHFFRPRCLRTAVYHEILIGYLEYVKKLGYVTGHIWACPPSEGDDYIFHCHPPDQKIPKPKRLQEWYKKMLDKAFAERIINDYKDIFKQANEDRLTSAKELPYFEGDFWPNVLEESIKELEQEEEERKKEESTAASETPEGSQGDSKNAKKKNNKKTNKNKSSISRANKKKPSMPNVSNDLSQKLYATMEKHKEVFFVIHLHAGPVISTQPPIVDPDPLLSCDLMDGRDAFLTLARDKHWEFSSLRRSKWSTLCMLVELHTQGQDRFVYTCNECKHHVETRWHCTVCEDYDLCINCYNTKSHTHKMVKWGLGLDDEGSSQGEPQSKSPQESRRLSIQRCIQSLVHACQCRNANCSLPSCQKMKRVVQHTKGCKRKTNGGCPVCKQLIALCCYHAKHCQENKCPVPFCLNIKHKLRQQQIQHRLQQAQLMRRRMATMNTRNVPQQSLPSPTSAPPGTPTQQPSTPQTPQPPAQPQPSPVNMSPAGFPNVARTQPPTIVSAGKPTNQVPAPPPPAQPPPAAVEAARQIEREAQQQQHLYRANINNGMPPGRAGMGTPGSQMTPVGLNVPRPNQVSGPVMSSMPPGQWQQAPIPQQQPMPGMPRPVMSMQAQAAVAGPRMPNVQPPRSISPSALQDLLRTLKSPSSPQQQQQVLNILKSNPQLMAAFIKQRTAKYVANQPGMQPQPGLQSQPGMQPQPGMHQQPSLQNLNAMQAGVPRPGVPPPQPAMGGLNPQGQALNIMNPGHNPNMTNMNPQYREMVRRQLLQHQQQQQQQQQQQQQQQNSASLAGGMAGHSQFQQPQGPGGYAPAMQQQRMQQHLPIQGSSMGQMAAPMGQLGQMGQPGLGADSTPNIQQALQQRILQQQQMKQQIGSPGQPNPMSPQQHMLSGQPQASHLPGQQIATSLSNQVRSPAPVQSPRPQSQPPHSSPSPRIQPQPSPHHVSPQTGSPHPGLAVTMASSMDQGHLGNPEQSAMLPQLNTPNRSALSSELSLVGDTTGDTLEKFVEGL

Sequence of Basic helix-loop-helix ARNT-like protein 1 (Mus musculus), Q9WTL8-4 L606A;L607A (Q9WTL8 other isoform, or with tags, fused parts or gaps L606A;L607A): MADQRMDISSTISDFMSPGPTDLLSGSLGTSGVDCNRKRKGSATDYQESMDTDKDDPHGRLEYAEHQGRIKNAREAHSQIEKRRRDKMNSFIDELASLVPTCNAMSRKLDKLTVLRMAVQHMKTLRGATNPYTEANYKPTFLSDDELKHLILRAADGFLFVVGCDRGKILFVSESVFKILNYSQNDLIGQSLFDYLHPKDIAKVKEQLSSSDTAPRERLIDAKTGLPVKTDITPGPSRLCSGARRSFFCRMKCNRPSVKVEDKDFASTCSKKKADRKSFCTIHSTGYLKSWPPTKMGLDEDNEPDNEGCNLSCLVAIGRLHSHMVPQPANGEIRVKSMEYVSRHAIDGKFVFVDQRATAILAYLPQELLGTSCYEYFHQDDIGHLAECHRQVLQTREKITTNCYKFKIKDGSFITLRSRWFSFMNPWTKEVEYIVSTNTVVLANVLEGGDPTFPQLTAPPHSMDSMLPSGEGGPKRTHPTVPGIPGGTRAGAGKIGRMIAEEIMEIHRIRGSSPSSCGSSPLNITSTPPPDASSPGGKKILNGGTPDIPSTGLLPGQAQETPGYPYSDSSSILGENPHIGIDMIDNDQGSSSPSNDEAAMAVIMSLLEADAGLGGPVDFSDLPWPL
Sequence of cry1_mouse Cry1 (P97784 whole entry): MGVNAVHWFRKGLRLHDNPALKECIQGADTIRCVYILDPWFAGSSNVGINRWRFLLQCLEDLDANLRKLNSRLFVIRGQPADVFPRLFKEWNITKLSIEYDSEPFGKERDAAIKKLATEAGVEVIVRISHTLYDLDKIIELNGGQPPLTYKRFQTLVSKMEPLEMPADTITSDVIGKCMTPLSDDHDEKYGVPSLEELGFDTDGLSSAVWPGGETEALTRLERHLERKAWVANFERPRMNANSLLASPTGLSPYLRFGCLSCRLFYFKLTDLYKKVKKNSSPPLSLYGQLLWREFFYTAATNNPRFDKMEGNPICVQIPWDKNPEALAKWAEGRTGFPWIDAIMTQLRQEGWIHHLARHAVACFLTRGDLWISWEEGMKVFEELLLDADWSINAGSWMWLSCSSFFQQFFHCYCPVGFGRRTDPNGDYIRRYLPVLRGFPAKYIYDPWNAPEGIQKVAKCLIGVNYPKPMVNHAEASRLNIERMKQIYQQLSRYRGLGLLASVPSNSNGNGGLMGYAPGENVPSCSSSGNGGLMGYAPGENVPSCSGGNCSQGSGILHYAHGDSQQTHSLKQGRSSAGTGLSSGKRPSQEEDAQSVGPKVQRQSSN
Sequence of Basic helix-loop-helix ARNT-like protein 1 (Mus musculus), Q9WTL8-4 V602A;I603F (Q9WTL8 other isoform, or with tags, fused parts or gaps V602A;I603F): as the sequence (Q9WTL8 other isoform, or with tags, fused parts or gaps L606A;L607A) above

Row | Substance | effect of a mutation on the interaction [1] | effect of a mutation on the interaction [2]
1 | Basic helix-loop-helix ARNT-like protein 1 (Mus musculus), Q9WTL8-4 V602A;I603F | disrupting interaction strength | –
2 | Basic helix-loop-helix ARNT-like protein 1 (Mus musculus), Q9WTL8-4 L606A;L607A | disrupting interaction strength | disrupting interaction strength
